Measurements taken from patent publication US20190330332A1, “Hypothermia Ameliorating Agent” (Kao Corporation, priority 2016, published 2019).
Ends that are not written are not given here.

What was measured:
[1] = tested on: C57BL/6J male mice fed high fat diet; experiment: Suppression of decrease in body temperature in mouse continuously taking in high fat diet; type: in vivo; details: in high fat diet for 26 weeks, measured at 34-week-old, compared to high fat diet control group
Procedure: Seven-week-old C57BL/6J male mice (CLEA Japan, Inc.) were transferred (room temperature: 23° C., humidity: 55±10%, light period: 7:00 to 19:00) and were fed with food and water ad libitum. The mice were acclimated using CE-2 (CLEA Japan, Inc.) as food for 1 week and were then grouped such that the body weights of each group were equivalent to each other and were fed with a normal diet containing 5% lipid (normal diet group), high fat diet containing 30% lipid (triacylglycerol) (high fat diet group), high fat diet containing 0.4% 4-hydroxybenzoic acid (2-bromobenzylidene) hydrazide (4H2BH, produced by the method described in Ling, et al., J. Med. Chem. 44: 3141-9, 2001) (4H2BH addition group), or high fat diet containing diacylglycerol (JP-A-2006-342084) instead of 30% triacylglycerol (DAG substitution group) for 26 weeks (34-week-old). During the breeding period, the body weight was measured once a week, and the food intake amount was measured twice a week. During the breeding period, the intake of the food and water was free. A probe was inserted into the rectum of each mouse at 34-week-old to measure the body temperature (rectal temperature).
(§1) The rectal temperature was measured with a digital rectal thermometer (NS-TC10, manufactured by NeuroScience, Inc.). […]

[2] = tested on: C57BLKS/J misty male mice (m/m mice); experiment: Acute decrease in body temperature (rectal temperature) by GIP; type: in vivo, mouse; details: 5 nmol/kg body weight intraperitoneal, 8-week-old m/m mice
Procedure: (§2) Six-week-old C57BLKS/J misty male mice (m/m mice, Oriental Yeast Co., Ltd.) were transferred (room temperature: 23° C., humidity: 55±10%, light period: 7:00 to 19:00) and were fed with food and water ad libitum. The food was CE-2 (CLEA Japan, Inc.), and the mice were acclimated for 2 weeks under the above-mentioned environment and were then used for testing.
Mouse-derived GIP (manufactured by AnaSpec, Inc.) was dissolved in physiological saline at a concentration of 500 nM to give a GIP solution.
Physiological saline (control group) or the GIP solution (5 nmol/kg body weight) (GIP administration group) was intraperitoneally administered to mice (8-week-old) in the light period (9:00 to 10:00 a.m.). Before the administration and 0.5, 2, 4.5, and 8 hours after the administration, a probe was inserted into the rectum of each mouse to measure the body temperature (rectal temperature).
The rectal temperature was measured with a digital rectal thermometer (NS-TC10, manufactured by NeuroScience, Inc.). According to Jikken Dobutsu Handobukku (Handbook of Experimental Animals) (Yokendo CO. Ltd., published in 1983), each mouse was retained under no anesthesia, and the tip of a probe (RET-3 (19×0.7 mm shaft diameter), manufactured by Physitemp instruments, LLC) was then inserted into the rectum of the mouse by 0.5 to 1 cm to measure for 15 to 30 seconds. […]

[3] = tested on: leptin receptor deficient C57BLKS/J male mice (db/db mice); experiment: Chronic decrease in body temperature by GIP and suppression by anti-GIP antibody; type: in vivo, mouse; details: intraperitoneal every morning for 28 days, measured 1 to 2 hours after administration
Procedure: as §2, with “Six-week-old leptin receptor deficient” for “Six-week-old”, “C57BLKS/J” for “C57BLKS/J misty”, “(db/db” for “(m/m”
Mouse-derived GIP (manufactured by AnaSpec, Inc.) was dissolved in physiological saline at a concentration of 500 nM to give a GIP solution. Mouse-derived GIP (manufactured by AnaSpec, Inc.) and the anti-active GIP antibody produced in Production Example 1 were dissolved in physiological saline at concentrations of 500 nM and 0.1 mg/mL, respectively, and the resulting solution was incubated for 1 to 2 hours at room temperature to give a GIP-binding anti-GIP antibody solution.
Physiological saline (control group), the GIP solution (5 nmol/kg body weight) (GIP administration group), or the GIP-binding anti-GIP antibody solution (GIP: 5 nmol/kg body weight, anti-GIP antibody: 1 mg/kg body weight) (GIP+anti-GIP antibody administration group) was intraperitoneally administered to mice (8-week-old) every morning (9:00 to 10:00 a.m.). […]
as §1

[4] = target: T1, GIP(1-42) (Homo sapiens, UniProt P09681); experiment: Reactivity with active GIP by sandwich ELISA; type: binding; details: biotinylated antibody 1 μg/mL as detection antibody, GIP 8.2 to 2000 pg/mL
T1 sequence (P09681 52-93): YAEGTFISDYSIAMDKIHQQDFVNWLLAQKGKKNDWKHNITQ
Procedure: (§3) The reactivity between the monoclonal antibody prepared in Production Example 1 and active GIP was confirmed by ELISA. The amino group of the anti-active GIP monoclonal antibody was biotinylated with NH2 group biotinylation kit (manufactured by Dojindo Laboratories). ELISA was performed using the produced biotinylated anti-active GIP monoclonal antibody at 1 μg/mL instead of a detection antibody, GIP detection antibody (biotinylated anti-total GIP monoclonal antibody), included in Human (total) GIP ELISA kit (manufactured by EMD Millipore Corporation). A […] dilution series of GIP(1-42) or GIP(3-42) was prepared in 6 steps (8.2 to 2000 pg/mL) with a 2000 pg/mL solution as the highest concentration. By using an anti-total GIP monoclonal antibody (included in Human GIP (total) ELISA kit manufactured by EMD Millipore Corporation) as a capture antibody, the biotinylated anti-active GIP monoclonal antibody as a detection antibody, and a peroxidase-streptavidin conjugate for detection, sandwich ELISA was conducted to prepare a calibration curve with GIP concentration on the X-axis and 450 nm-590 nm absorbance on the Y-axis (FIG. 1).

[5] = target: T2, GIP(3-42) (Homo sapiens, UniProt P09681); experiment: Cross-reactivity with inactive GIP by sandwich ELISA; type: binding; details: biotinylated antibody 1 μg/mL as detection antibody, GIP 8.2 to 2000 pg/mL
T2 sequence (P09681 54-93): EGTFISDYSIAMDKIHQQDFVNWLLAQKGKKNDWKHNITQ
Procedure: as §3

[6] = tested on: C57BL/6J male mice (107-week-old); experiment: Suppression of decrease in body temperature by anti-GIP antibody in aged mouse; type: in vivo; details: aged C57BL/6J mice, 0.5 mg/kg intraperitoneal once a week for 8 weeks
Procedure: Four-week-old C57BL/6J male mice (CLEA Japan, Inc.) were transferred (room temperature: 23° C., humidity: 55±10%, light period: 7:00 to 19:00) and were fed with food (D12450K, Research Diets, Inc.) and water ad libitum for 111 weeks.
The anti-active GIP antibody produced in Production Example 1 was dissolved in physiological saline at a concentration of 0.05 mg/mL to give an anti-GIP antibody solution.
Physiological saline (control group) or the anti-GIP antibody solution (0.5 mg/kg body weight) (anti-GIP antibody administration group) was intraperitoneally administered to C57BL/6J mice (107-week-old) once a week (9:00 to 10:00 a.m.). The administration period was 8 weeks, and the probe was inserted into the rectum of each mouse chronologically (at 2 to 4 weeks intervals) to measure the body temperature (rectal temperature).
The rectal temperature was measured with a digital rectal thermometer (NS-TC10, manufactured by NeuroScience, Inc.). According to Jikken Dobutsu Handobukku (Handbook of Experimental Animals) (Yokendo CO. Ltd., published in 1983), each mouse was retained under no anesthesia, and the tip of a probe (RET-3 (19×0.7 mm shaft diameter), manufactured by Physitemp instruments, LLC) was then inserted into the rectum of the mouse by 0.5 to 1 cm to measure for 15 to 30 seconds.
The analysis results were shown as the average value (Ave.)±standard error (SE). […]

[7] = target: T3, PEGylated N-terminus 15 amino acids of active GIP (GIP(1-15)) (also: PEGylated, site not given here); experiment: ELISA on immobilized antigen, hybridoma culture supernatant
T3 construct: Immobilized for the ELISA; also called antigen (1) for measurement; PEGylated GIP(1-15)
T3 peptide: YAEGTFISDYSIAMD
Procedure: (§4) The reaction between the hybridoma culture supernatant and the antigen (1) and (2) for measurement was evaluated by ELISA using immobilized antigen (1) and (2), and hybridomas that are positive for the antigen (1) and negative for the antigen (2) were selected as anti-active GIP monoclonal antibody-producing hybridomas.

[8] = target: T4, PEGylated N-terminus 13 amino acids of inactive GIP (GIP(3-15)) (also: PEGylated, site not given here); experiment: as above
T4 construct: Immobilized for the ELISA; also called antigen (2) for measurement; PEGylated GIP(3-15)
T4 peptide: EGTFISDYSIAMD
Procedure: as §4

[9] = target: T5, GIP(3-42) (inactive GIP); experiment: sandwich ELISA; anti-total GIP monoclonal antibody as capture, biotinylated anti-active GIP antibody at 1 ug/mL as detector
T5 peptide: T2 sequence (P09681 54-93)
Procedure: as §3, with “NH₂” for “NH2”

## O=C(NN=Cc1ccccc1Br)c1ccc(O)cc1 [4H2BH, 4-hydroxybenzoic acid (2-bromobenzylidene) hydrazide]
[1]
  decrease in body temperature (rectal) due to high fat diet intake: suppressed

## GIP: Mouse-derived GIP (gastric inhibitory polypeptide, manufactured by AnaSpec, Inc.) dissolved in physiological saline at 500 nM (YAEGTFISDYSIAMDKIRQQDFVNWLLAQRGKKSDWKHNITQ)
[2]; after 2 hours
  decrease in the body temperature (rectal) compared to the control group: 0.83 °C
[2]; after 4.5 hours
  decrease in the body temperature (rectal) compared to the control group: 0.81 °C
[3]
  chronic change in body temperature (rectal) compared to the control group: chronic decrease in the body temperature was observed

B1: anti-active GIP monoclonal antibody produced by hybridoma 9B9H5-B9 line (Production Example 1) (antibody, V domains shown)
VH: QVQLQQPGAELVKPGASVKLSCKASGYTFTSFWMHWVIQRPGQGLEWIGEMNPSDGRTHFNEKFKTKATLTIDTSSNTAYMELNSLTSEDSAVYYCARRMEDWGQGTLVTVSA
VL: DIKMTQSPSSMYASLGERVTITCKASQDINSYLGWFQQKPGKSPKTLIYGANRLVDGVPSRFSGSGSGQDYSLTISSLEYDDMGIYYCLQYDEFPLTFGAGTKLELKR
notes: in the screening and cloning ELISA it was hybridoma culture supernatant; also called anti-active GIP antibody
[4]
  reactivity with GIP(1-42) (450 nm-590 nm absorbance): capable of specifically detecting GIP(1-42)
[5]
  cross-reactivity with GIP(3-42) (450 nm-590 nm absorbance): does not show cross-reactivity with GIP(3-42)
[6]
  body temperature (rectal) compared to the control group and the non-administration group: significantly high
  decrease in the body temperature with aging: suppression of a decrease in the body temperature with aging was observed
[7]
  binding result: binds
[8]
  binding result: no binding
[9]
  binding result: no binding (tested: 2000 pg/mL (highest GIP concentration))
